Measured values reported in paper PMC4446428, “A novel RNA binding surface of the TAM domain of TIP5/BAZ2A mediates epigenetic regulation of rRNA genes”.

Experiments:
[1] = tested on: TIP5/TAM-AT (Homo sapiens); experiment: filter binding (Scatchard); settings: 5 mM Mg2+, protein preincubated with 4x excess unlabeled MCS-RNA, EMSA: 12 mM Tris-HCl pH 8.0, 100 mM KCl, 5 mM MgCl2, 0.1 mM EDTA, 0.5 mM DTT, 3% glycerol, on ice, filter binding: 10 mM Tris-HCl pH 7.4, 100 mM KCl
TIP5/TAM [2] = molecular target: T1, TIP5/TAM (Homo sapiens, UniProt Q9UIF9 516-623); experiment: NMR titration; EMSA: 12 mM Tris-HCl pH 8.0, 100 mM KCl, 5 mM MgCl2, 0.1 mM EDTA, 0.5 mM DTT, 3% glycerol, on ice; filter binding: 10 mM Tris-HCl pH 7.4, 100 mM KCl, 5 mM MgCl2, on ice; NMR: 20 mM Na phosphate pH 7.0, 50 mM NaCl, 1 mM DTT, 298 K (TAM-AT) or 293 K (TAM); settings: protein: recombinant; tags: His6-GB1, TEV-removed; label: none; hairpin
T1 sequence: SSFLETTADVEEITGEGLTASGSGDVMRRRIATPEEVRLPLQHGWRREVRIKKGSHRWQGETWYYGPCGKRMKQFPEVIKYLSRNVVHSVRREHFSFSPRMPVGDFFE

TIP5/TAM [3] = molecular target: T1, TIP5/TAM; experiment: NMR titration; negligible shift changes; EMSA: 12 mM Tris-HCl pH 8.0, 100 mM KCl, 5 mM MgCl2, 0.1 mM EDTA, 0.5 mM DTT, 3% glycerol, on ice; filter binding: 10 mM Tris-HCl pH 7.4, 100 mM KCl, 5 mM MgCl2, on ice; NMR: 20 mM Na phosphate pH 7.0, 50 mM NaCl, 1 mM DTT, 298 K (TAM-AT) or 293 K (TAM); settings: protein: recombinant; tags: His6-GB1, TEV-removed; label: none; single-stranded

pRNA (mouse rDNA -204/-1)
Kd [1]: 5.5 nM

B1: Xist A-repeat RNA hairpin (structured_RNA)
RNA: GGCGCAUCGGCGCC
binding result (TIP5/TAM [2]): binds

B2: 13-mer poly-U RNA (ssRNA)
RNA: UUUUUUUUUUUUU
binding result (TIP5/TAM [3]): no binding
